Source: article PMC2627783

Target: HscA (UniProt P0A6Z1)
Sequence (P0A6Z1 whole entry): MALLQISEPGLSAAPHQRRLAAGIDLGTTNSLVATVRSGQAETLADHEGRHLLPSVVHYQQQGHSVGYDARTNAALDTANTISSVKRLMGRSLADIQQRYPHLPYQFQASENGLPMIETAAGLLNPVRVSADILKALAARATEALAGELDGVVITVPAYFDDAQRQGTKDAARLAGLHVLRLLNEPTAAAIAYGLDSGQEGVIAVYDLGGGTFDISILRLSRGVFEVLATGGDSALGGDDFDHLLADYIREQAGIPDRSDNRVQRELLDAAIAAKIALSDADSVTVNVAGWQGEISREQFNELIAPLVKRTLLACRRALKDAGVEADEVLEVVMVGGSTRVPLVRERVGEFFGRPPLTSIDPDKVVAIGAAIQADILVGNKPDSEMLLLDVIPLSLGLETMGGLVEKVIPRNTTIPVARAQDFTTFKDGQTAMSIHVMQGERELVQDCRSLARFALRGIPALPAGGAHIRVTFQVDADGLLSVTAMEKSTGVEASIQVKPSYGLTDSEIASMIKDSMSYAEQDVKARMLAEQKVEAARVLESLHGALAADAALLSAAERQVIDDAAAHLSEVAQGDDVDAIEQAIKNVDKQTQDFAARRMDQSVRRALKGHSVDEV

Row | HscA ATPase activity, 23 °C, in the absence of IscU: maximal stimulation [fold] | Binder
1 | 4.3 | HscB(E97A,E100A,E104A) (natural protein) MDYFTLFGLPARYQLDTQALSLRFQDLQRQYHPDKFASGSQAEQLAAVQQSATINQAWQTLRHPLMRAEYLLSLHGFDLASEQHTVRDTAFLMEQLALRAELDAIEQAKDEARLESFIKRVKKMFDTRHQLMVEQLDNETWDAAADTVRKLRFLDKLRSSAEQLEEKLLDF
2 | 3.8 | HscB(L92A,M93A,F153A) (natural protein) MDYFTLFGLPARYQLDTQALSLRFQDLQRQYHPDKFASGSQAEQLAAVQQSATINQAWQTLRHPLMRAEYLLSLHGFDLASEQHTVRDTAFAAEQLELREELDEIEQAKDEARLESFIKRVKKMFDTRHQLMVEQLDNETWDAAADTVRKLRALDKLRSSAEQLEEKLLDF
